Results as given in patent publication US20020123082A1 (NEW YORK UNIVERSITY, published 2002).
Values belong to the binder of their own block, whether it stands above or below them. Non-standard residues stand in square brackets, D forms with d. No end group written: not given here. pY = N[C@@H](Cc1ccc(OP(=O)(O)O)cc1)C(=O)O; pT = C[C@@H](OP(=O)(O)O)[C@H](N)C(=O)O

B1: phospho-p27 peptide NAGSVEQT*PKKPGLRRRQT (peptide)
peptide: NAGSVEQ[pT]PKKPGLRRRQT
notes: Coupled to Sepharose beads; 19 C-terminal residues of p27; also called phospho-T187 p27 peptide; p27 phosphopeptide

Legend:
human F-box protein FBP1 = biological target: T1, human F-box protein FBP1 (human, UniProt Q9Y297 1-605); test: in vitro translated 35S-FBP on phospho-p27 peptide Sepharose beads, RIPA wash, autoradiography
T1 sequence: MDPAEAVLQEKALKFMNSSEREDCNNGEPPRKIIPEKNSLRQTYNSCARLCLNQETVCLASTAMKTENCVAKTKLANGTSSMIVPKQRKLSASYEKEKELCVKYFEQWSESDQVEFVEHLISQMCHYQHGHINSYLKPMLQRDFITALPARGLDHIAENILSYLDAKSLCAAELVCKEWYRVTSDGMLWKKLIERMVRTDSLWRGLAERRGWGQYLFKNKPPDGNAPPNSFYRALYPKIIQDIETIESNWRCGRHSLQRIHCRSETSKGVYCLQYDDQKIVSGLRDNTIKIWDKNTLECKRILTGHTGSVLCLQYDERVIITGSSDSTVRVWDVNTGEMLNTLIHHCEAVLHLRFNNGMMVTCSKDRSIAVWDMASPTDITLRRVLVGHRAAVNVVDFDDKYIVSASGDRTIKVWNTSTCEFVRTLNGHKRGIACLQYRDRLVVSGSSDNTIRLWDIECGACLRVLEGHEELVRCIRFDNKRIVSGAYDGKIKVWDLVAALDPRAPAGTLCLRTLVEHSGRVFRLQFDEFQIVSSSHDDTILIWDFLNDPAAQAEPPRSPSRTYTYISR
Experimental: (§1) FIG. 37A-C. […] Beads were washed with RIPA buffer and bound proteins were eluted and subjected to electrophoresis and autoradiography (Upper Panel). Bottom Panel: 10% of the in vitro translated [35S]FBP inputs. […] Beads were washed with RIPA buffer and bound proteins were immunoblotted with antibodies to the proteins indicated on the left of each panel. A portion of the HeLa extract (25 μg) was used as a control (lane 4). […] C. […] Beads were washed with RIPA buffer and bound proteins subjected to electrophoresis and autoradiography.

human F-box protein FBP2 = biological target: T2, human F-box protein FBP2 (human, UniProt Q9UKT8 1-419, limits assumed); test: as above
T2 sequence: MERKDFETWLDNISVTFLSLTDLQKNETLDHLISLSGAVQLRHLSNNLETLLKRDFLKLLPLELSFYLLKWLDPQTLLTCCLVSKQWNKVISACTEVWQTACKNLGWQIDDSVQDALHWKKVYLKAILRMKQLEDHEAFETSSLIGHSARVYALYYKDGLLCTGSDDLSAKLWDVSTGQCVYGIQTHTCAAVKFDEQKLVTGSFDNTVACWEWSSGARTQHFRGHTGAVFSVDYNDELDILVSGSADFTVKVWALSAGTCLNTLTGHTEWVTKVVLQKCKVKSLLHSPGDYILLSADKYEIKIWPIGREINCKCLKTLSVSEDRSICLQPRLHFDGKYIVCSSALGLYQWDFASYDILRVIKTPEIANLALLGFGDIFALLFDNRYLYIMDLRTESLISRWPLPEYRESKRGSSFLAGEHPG
Experimental: as §1

[1] = biological target: T3, human F-box protein FBP3a (human, UniProt Q9UKT7 1-428); test: as above
T3 sequence: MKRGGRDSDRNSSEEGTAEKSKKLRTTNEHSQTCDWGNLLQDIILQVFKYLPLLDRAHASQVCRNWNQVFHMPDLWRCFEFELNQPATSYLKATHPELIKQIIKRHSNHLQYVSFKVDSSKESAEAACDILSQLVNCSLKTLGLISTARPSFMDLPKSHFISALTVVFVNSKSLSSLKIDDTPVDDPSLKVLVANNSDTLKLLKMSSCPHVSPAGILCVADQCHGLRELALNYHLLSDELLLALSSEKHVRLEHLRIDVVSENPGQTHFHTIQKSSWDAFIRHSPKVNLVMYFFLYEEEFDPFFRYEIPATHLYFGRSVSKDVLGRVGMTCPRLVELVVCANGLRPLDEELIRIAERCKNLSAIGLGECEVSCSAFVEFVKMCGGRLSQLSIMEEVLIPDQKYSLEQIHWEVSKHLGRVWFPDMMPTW
Experimental: as §1

human F-box protein FBP5 = biological target: T4, human F-box protein FBP5 (human, UniProt Q9UKT4 1-447); test: as above
T4 construct: Gal4 AD fusion in the two-hybrid screen; the clone appeared to be full length
T4 sequence: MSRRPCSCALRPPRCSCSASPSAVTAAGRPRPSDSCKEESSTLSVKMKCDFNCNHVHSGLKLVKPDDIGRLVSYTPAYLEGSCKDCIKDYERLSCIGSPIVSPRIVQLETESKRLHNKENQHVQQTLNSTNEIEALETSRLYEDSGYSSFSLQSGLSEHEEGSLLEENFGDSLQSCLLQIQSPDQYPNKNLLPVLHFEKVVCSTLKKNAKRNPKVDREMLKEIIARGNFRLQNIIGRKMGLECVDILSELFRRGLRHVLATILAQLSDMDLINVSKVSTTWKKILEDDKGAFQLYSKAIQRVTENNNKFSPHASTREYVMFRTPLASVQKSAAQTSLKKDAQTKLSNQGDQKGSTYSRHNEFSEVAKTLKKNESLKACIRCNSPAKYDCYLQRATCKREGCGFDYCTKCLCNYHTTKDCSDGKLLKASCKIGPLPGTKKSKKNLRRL
Experimental: as §1

human Cul1 (endogenous) [2] = biological target: T5, human Cul1 (endogenous) (human, UniProt Q13616 1-776); test: anti-Flag co-immunoprecipitation from transfected HeLa cells, anti-Cul1 immunoblot
T5 construct: A slower migrating form is said to be likely modified by a ubiquitin-like molecule
Text: HeLa cells were transfected with mammalian expression plasmids encoding Flag-tagged versions of FBP1 (lane 1), (ΔF)FBP1 (lane 2), FBP4 (lane 3), FBP7 (lane 5), FBP2 (lane 7), (ΔF)FBP2 (lane 8), FBP3a (lane 9), (ΔF)FBP3a (lane 10), or with an empty vector (lanes 4 and 6). Cells were lysed and extracts were subjected to immunoprecipitation with a rabbit anti-Flag antibody (lanes 1-8). Immunoprecipitates were then immunoblotted with a mouse anti-Cul1 monoclonal antibody, a rabbit anti-Skp1 polyclonal antibody or a rabbit anti-Cul2 polyclonal antibody, as indicated. The last lane contains 25 μg of extracts from non-transfected HeLa cells; […] contains recombinant Cul1, Skp1, or Cul2 proteins used as markers.

His-tagged Elongin C = His-tagged Elongin C (human, UniProt Q15369 1-112); test: pull-down of in vitro translated 35S-FBP on His-Elongin C Nickel-agarose beads
Experimental: FIG. 29. FBPs interact specifically with Skp1 through their F-box. The cDNAs of FBPs (wild type and mutants) were transcribed and translated in vitro (IVT) in the presence of 35S- methionine. […] Bound IVT proteins were analyzed by SDS-PAGE and autoradiography. The arrows on the left side of the panels point to the indicated FBPs. The apparent molecular weights of the protein standards are indicated on the right side of the panels.
As examples of the human FBP family, a more detailed characterization of some FBPs was performed. To confirm the specificity of interaction between the novel FBPs and human Skp1, eight in vitro translated FBPs were tested for binding to His-tagged-Skp1 pre-bound to Nickel-agarose beads. As a control Elongin C was used, the only known human Skp1 homolog.

[3] = biological target: B1; test: in vitro translated 35S-FBP on phospho-p27 peptide Sepharose beads, RIPA wash, autoradiography
Experimental: as §1

[4] = biological target: human Skp1 (endogenous, HeLa cells) (human, UniProt P63208 2-163); test: HeLa cell extract on peptide beads, RIPA wash, immunoblot
Experimental: (§2) Beads were washed with RIPA buffer and bound proteins were immunoblotted with antibodies to the proteins indicated on the left of each panel. A portion of the HeLa extract (25 μg) was used as a control (lane 4). […] C. […] Beads were washed with RIPA buffer and bound proteins subjected to electrophoresis and autoradiography.
(§3) Proteins stably associated with the beads were examined by immunoblotting.

human Cul1 (endogenous) [5] = biological target: T5, human Cul1 (endogenous); test: as above
Experimental: as §2, §3

human F-box protein Skp2 = biological target: T6, human F-box protein Skp2 (human, UniProt Q13309 1-424); test: as above
T6 construct: Used as in vitro translated 35S-Skp2, as endogenous protein of HeLa and IMR90 extracts and as untagged baculovirus protein; also called S-phase kinase-associated protein 2
Experimental: as §2, §3

T5 sequence (Q13616 whole entry): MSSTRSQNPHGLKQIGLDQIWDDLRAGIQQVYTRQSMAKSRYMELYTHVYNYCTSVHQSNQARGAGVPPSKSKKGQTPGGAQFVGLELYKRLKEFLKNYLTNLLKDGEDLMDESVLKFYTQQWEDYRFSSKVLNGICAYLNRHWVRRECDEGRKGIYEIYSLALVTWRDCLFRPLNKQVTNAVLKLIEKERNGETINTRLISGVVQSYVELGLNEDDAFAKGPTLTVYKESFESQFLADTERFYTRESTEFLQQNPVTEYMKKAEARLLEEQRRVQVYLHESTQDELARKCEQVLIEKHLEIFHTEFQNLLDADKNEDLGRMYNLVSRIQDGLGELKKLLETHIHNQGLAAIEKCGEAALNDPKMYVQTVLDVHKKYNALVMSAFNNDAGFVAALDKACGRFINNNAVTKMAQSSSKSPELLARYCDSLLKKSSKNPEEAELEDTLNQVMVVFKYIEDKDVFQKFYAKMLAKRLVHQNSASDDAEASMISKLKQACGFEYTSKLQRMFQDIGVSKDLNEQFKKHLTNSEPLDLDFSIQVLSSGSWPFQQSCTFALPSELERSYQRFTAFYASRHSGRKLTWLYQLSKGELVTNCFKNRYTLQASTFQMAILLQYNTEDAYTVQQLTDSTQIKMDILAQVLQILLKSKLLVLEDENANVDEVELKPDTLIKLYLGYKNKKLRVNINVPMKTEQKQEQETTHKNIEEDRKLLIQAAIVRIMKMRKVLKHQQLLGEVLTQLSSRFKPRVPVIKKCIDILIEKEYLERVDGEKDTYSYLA
T6 sequence (Q13309 whole entry): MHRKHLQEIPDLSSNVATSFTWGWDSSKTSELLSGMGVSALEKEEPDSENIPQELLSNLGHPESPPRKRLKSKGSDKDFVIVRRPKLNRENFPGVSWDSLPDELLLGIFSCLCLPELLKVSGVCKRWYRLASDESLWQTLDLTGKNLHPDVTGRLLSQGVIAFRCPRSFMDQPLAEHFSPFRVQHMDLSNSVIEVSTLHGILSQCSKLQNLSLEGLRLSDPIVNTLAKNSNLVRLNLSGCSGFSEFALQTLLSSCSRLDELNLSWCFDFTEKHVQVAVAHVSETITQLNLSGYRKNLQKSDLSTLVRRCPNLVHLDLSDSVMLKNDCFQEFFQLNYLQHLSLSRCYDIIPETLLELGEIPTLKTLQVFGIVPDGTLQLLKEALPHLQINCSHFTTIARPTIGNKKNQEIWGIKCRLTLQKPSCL
human Skp1 (endogenous, HeLa cells), sequence (P63208 2-163 limits assumed): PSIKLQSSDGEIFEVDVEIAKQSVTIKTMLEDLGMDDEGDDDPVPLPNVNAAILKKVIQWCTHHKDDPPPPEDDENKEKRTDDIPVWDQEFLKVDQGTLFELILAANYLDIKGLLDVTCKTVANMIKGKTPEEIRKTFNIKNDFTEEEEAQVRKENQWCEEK
His-tagged Elongin C, sequence (Q15369 whole entry): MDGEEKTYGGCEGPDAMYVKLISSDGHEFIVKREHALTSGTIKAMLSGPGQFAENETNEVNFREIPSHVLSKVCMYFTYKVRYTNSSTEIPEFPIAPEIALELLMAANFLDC

Binder: B1
binding result (human F-box protein FBP1): no binding
binding result (human F-box protein FBP2): no binding
binding result [1]: no binding
binding result (human F-box protein FBP5): no binding

binding result (human Cul1 (endogenous) [2]): no binding
B2: Flag-tagged (ΔF)FBP3a (other, not shown: small tags and cut ends)
chain: MKRGGRDSDRNSSEEGTAEKSKKLRTTNEHSQTCDWGNLRCFEFELNQPATSYLKATHPELIKQIIKRHSNHLQYVSFKVDSSKESAEAACDILSQLVNCSLKTLGLISTARPSFMDLPKSHFISALTVVFVNSKSLSSLKIDDTPVDDPSLKVLVANNSDTLKLLKMSSCPHVSPAGILCVADQCHGLRELALNYHLLSDELLLALSSEKHVRLEHLRIDVVSENPGQTHFHTIQKSSWDAFIRHSPKVNLVMYFFLYEEEFDPFFRYEIPATHLYFGRSVSKDVLGRVGMTCPRLVELVVCANGLRPLDEELIRIAERCKNLSAIGLGECEVSCSAFVEFVKMCGGRLSQLSIMEEVLIPDQKYSLEQIHWEVSKHLGRVWFPDMMPTW
notes: pcDNA3 construct, Flag tag at the C-terminus; also called Flag-tagged (deltaF)FBP3a

binding result (His-tagged Elongin C): no binding
binding result [3]: no binding
B3: human F-box protein FBP7 (other)
chain: MSNTRFTITLNYKDPLTGDEETLASYGIVSGDLICLILHDDIPPPNIPSSTDSEHSSLQNNEQPSLATSSNQTSIQDEQPSDSFQGQAAQSGVWNDDSMLGPSQNFEAESIQDNAHMAEGTGFYPSEPLLCSESVEGQVPHSLETLYQSADCSDANDALIVLIHLLMLESGYIPQGTEAKALSLPEKWKLSGVYKLQYMHHLCEGSSATLTCVPLGNLIVVNATLKINNEIRSVKRLQLLPESFICKEKLGENVANIYKDLQKLSRLFKDQLVYPLLAFTRQALNLPNVFGLVVLPLELKLRIFRLLDVRSVLSLSAVCRDLFTASNDPLLWRFLYLRDFRDNTVRVQDTDWKELYRKRHIQRKESPKGRFVLLLPSSTHTIPFYPNPLHPRPFPSSRLPPGIIGGEYDQRPTLPYVGDPISSLIPGPGETPSQLPPLRPRFDPVGPLPGPNPILPGRGGPNDRFPFRPSRGRPTDGRLSFM

binding result [4]: no binding
binding result (human Cul1 (endogenous) [5]): no binding
binding result (human F-box protein Skp2): no binding
B4: control phospho-peptide AEIGVGAY*GTVYKARDPHS of human Cdk4 (peptide)
peptide: AEIGVGA[pY]GTVYKARDPHS
notes: Coupled to beads; also called unrelated phospho-peptide
